In article PMC6532589:

Target: human alpha-thrombin (human, UniProt P00734;P00734 328-363;364-622)
Assay: centrifugation separation, free thrombin by fibrinogen-Au NP assay, Scatchard; graphene oxide carrier; 100 uM BSA; PBS (1X: 137 mM NaCl, 2.7 mM KCl, 10 mM Na2HPO4, 1.8 mM KH2PO4, pH 7.4) with 100 uM BSA, 30 min; 100 pM Supra-TBA15/29, thrombin 0-1 nM; temperature not stated

B1: Supra-TBA15/29-GO (sTBA15 + sTBA29 network on graphene oxide) (mixed)
DNA 1: AAAAAAAAAAAAAAAAAAAACGACCTGTACGACTCTTTTTTCAGGGTTGGTGTGGTTGGCTGATTTTTATCTTCACGAGCACT
DNA 2: GAGTCGTACAGGTCGTTTTTAGTCCGTGGTAGGGCAGGTTGGGGTGACTTTTTTAGTGCTCGTGAAGATAAAAAAAAAAAAAAAAAAAA
modifications: adsorbed on graphene oxide through A20 tails (40 ug/mL GO, 60 C)
With B1 the Kd was 0.019 nM.
